Reference: patent publication US20090192084A1 (CALIFORNIA INSTITUTE OF TECHNOLOGY, published 2009)

T1: Ubiquitin conjugation factor E4 B, UBE4B (Ufd2ortholog) (human, UniProt O95155 1-1302)
T1 sequence (looked up): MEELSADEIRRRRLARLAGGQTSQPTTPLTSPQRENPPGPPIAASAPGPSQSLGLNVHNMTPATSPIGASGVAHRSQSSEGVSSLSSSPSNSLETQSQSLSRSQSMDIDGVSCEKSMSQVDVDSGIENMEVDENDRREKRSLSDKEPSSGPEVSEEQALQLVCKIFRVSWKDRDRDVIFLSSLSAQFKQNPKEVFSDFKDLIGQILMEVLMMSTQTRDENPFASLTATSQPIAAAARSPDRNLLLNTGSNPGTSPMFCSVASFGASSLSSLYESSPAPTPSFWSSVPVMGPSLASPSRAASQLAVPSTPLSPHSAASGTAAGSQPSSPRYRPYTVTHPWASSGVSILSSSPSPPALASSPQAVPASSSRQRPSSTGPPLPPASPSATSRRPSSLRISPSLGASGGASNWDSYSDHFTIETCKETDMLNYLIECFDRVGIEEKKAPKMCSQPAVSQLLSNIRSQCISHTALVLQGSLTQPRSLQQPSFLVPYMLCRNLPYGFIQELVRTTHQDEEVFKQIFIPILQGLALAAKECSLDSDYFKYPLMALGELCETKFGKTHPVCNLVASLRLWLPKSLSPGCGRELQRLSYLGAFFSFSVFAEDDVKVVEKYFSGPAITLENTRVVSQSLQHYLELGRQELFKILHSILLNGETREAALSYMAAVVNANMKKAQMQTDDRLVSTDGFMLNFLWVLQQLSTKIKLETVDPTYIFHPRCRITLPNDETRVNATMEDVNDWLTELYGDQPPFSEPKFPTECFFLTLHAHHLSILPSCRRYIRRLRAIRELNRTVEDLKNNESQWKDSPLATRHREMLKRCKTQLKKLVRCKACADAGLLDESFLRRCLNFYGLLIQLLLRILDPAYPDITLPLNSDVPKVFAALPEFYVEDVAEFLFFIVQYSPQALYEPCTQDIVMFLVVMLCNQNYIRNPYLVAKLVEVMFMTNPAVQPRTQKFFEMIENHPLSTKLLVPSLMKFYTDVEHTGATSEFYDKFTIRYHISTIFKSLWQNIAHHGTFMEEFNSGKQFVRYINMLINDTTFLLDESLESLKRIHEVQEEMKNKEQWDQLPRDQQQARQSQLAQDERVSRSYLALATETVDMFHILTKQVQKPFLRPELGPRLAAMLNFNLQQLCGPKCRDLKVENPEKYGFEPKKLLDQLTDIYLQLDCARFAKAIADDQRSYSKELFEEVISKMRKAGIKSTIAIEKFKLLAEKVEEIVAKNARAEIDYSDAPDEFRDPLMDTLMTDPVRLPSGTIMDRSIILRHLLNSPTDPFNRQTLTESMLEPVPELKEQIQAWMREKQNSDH


Legend:
[1] = biological target: T2, endogenous p97 (human, UniProt P55072 2-806); test: Flag co-IP, 293 cells, MudPIT MS
T2 construct: also called VCP
Protocol: For immunoprecipitation experiments, the cells were lysed in buffer A (50 mM HEPES/KOH, pH 7.5; 5 mM Mg(OAc)₂; 70 mM KOAc; 0.2% Triton X-100; 10% glycerol; 0.2 mM EDTA; protease inhibitors) and incubated with anti-Flag agarose beads (Sigma) or anti-Myc sepharose beads (Covance).
Mass spectrometrical sample analysis was performed as described previously (Graumann et al., 2004) using a high-pressure liquid chromatography pump (Agilent) in line to a LCQ DecaXP electrospray ion trap mass spectrometer (ThermoFinnigan). In brief, 2-4 mg of protein extract were incubated with anti-Flag or anti-Myc beads and the immunoprecipitated proteins were eluted with saturated urea. The eluates were then proteolitically digested using sequentially endoproteinase Lys-C and trypsin. The resulting peptide mixtures were pressure-loaded onto triphasic microcapillary columns and sample separation was achieved using a chromatography program consisting of six salt steps, each followed by an organic gradient. The eluting peptides were electrosprayed into the mass spectrometer and the column eluate was continuously analyzed. One full-range mass scan ([…]) was followed by three data-dependent tandem mass spectrometry (MS/MS) spectra. Sequence database matching was performed against the IPI human database (Kersey et al., 2004) version 3.15.1 using Sequest (Eng et al., 1994) and the results were filtered with DTASelect (Tabb et al., 2002), using the parameters indicated in Graumann et al. (2004).

[2] = biological target: T1, Ubiquitin conjugation factor E4 B, …; test: co-IP, MudPIT MS

Binder	sequence count [1]	sequence coverage [1] [%]	spectrum count [1]	binding result [2]
Flag-UBXD1 (other, UniProt Q9BZV1 1-441, looked up, also called RDB 2152; not shown: N-terminal Flag tag) MKKFFQEFKADIKFKSAGPGQKLKESVGEKAHKEKPNQPAPRPPRQGPTNEAQMAAAAALARLEQKQSRAWGPTSQDTIRNQVRKELQAEATVSGSPEAPGTNVVSEPREEGSAHLAVPGVYFTCPLTGATLRKDQRDACIKEAILLHFSTDPVAASIMKIYTFNKDQDRVKLGVDTIAKYLDNIHLHPEEEKYRKIKLQNKVFQERINCLEGTHEFFEAIGFQKVLLPAQDQEDPEEFYVLSETTLAQPQSLERHKEQLLAAEPVRAKLDRQRRVFQPSPLASQFELPGDFFNLTAEEIKREQRLRSEAVERLSVLRTKAMREKEEQRGLRKYNYTLLRVRLPDGCLLQGTFYARERLGAVYGFVREALQSDWLPFELLASGGQKLSEDENLALNECGLVPSALLTFSWDMAVLEDIKAAGAEPDSILKPELLSAIEKLL	159	84.3	1130	
Flag-UBXD3 (other, UniProt Q96LJ8 1-280, looked up, also called RDB 2149; not shown: N-terminal Flag tag) MATEAPVNIAPPECSTVVSTAVDSLIWQPNSLNMHMIRPKSAKGRTRPSLQKSQGVEVCAHHIPSPPPAIPYELPSSQKPGACAPKSPNQGASDEIPELQQQVPTGASSSLNKYPVLPSINRKNLEEEAVETVAKKASSLQLSSIRALYQDETGTMKTSEEDSRARACAVERKFIVRTKKQGSSRAGNLEEPSDQEPRLLLAVRSPTGQRFVRHFRPTDDLQTIVAVAEQKNKTSYRHCSIETMEVPRRRFSDLTKSLQECRIPHKSVLGISLEDGEGWP	57	64.5	254	
Flag-FAF1 (other, UniProt Q9UNN5 1-650, looked up, also called RDB 2151; not shown: N-terminal Flag tag) MASNMDREMILADFQACTGIENIDEAITLLEQNNWDLVAAINGVIPQENGILQSEYGGETIPGPAFNPASHPASAPTSSSSSAFRPVMPSRQIVERQPRMLDFRVEYRDRNVDVVLEDTCTVGEIKQILENELQIPVSKMLLKGWKTGDVEDSTVLKSLHLPKNNSLYVLTPDLPPPSSSSHAGALQESLNQNFMLIITHREVQREYNLNFSGSSTIQEVKRNVYDLTSIPVRHQLWEGWPTSATDDSMCLAESGLSYPCHRLTVGRRSSPAQTREQSEEQITDVHMVSDSDGDDFEDATEFGVDDGEVFGMASSALRKSPMMPENAENEGDALLQFTAEFSSRYGDCHPVFFIGSLEAAFQEAFYVKARDRKLLAIYLHHDESVLTNVFCSQMLCAESIVSYLSQNFITWAWDLTKDSNRARFLTMCNRHFGSVVAQTIRTQKTDQFPLFLIIMGKRSSNEVLNVIQGNTTVDELMMRLMAAMEIFTAQQQEDIKDEDEREARENVKREQDEAYRLSLEADRAKREAHEREMAEQFRLEQIRKEQEEEREAIRLSLEQALPPEPKEENAEPVSKLRIRTPSGEFLERRFLASNKLQIVFDFVASKGFPWDEYKLLSTFPRRDVTQLDPNKSLLEVKLFPQETLFLEAKE	84	68.9	539	no binding
Flag-UBXD6 (other, UniProt O00124 1-270, looked up, also called Rep-8/UBXD6; RDB 2145; not shown: N-terminal Flag tag) MASRGVVGIFFLSAVPLVCLELRRGIPDIGIKDFLLLCGRILLLLALLTLIISVTTSWLNSFKSPQVYLKEEEEKNEKRQKLVRKKQQEAQGEKASRYIENVLKPHQEMKLRKLEERFYQMTGEAWKLSSGHKLGGDEGTSQTSFETSNREAAKSQNLPKPLTEFPSPAEQPTCKEIPDLPEEPSQTAEEVVTVALRCPSGNVLRRRFLKSYSSQVLFDWMTRIGYHISLYSLSTSFPRRPLAVEGGQSLEDIGITVDTVLILEEKEQTN	55	59.5	212	
Flag-SAKS1 (other, UniProt Q04323 1-297, looked up, also called RDB 2150; not shown: N-terminal Flag tag) MAELTALESLIEMGFPRGRAEKALALTGNQGIEAAMDWLMEHEDDPDVDEPLETPLGHILGREPTSSEQGGLEGSGSAAGEGKPALSEEERQEQTKRMLELVAQKQREREEREEREALERERQRRRQGQELSAARQRLQEDEMRRAAEERRREKAEELAARQRVREKIERDKAERAKKYGGSVGSQPPPVAPEPGPVPSSPSQEPPTKREYDQCRIQVRLPDGTSLTQTFRAREQLAAVRLYVELHRGEELGGGQDPVQLLSGFPRRAFSEADMERPLQELGLVPSAVLIVAKKCPS	68	57.4	663	

The remaining lines, values ahead:

sequence count [1]	sequence coverage [1] [%]	spectrum count [1]	binding result [2]	Binder
154	78.5	1440		Flag-ASPL (other, UniProt Q9BZE9 1-553, looked up, also called RDB 2144; not shown: N-terminal Flag tag) MAAPAGGGGSAVSVLAPNGRRHTVKVTPSTVLLQVLEDTCRRQDFNPCEYDLKFQRSVLDLSLQWRFANLPNNAKLEMVPASRSREGPENMVRIALQLDDGSRLQDSFCSGQTLWELLSHFPQIRECLQHPGGATPVCVYTRDEVTGEAALRGTTLQSLGLTGGSATIRFVMKCYDPVGKTPGSLGSSASAGQAAASAPLPLESGELSRGDLSRPEDADTSGPCCEHTQEKQSTRAPAAAPFVPFSGGGQRLGGPPGPTRPLTSSSAKLPKSLSSPGGPSKPKKSKSGQDPQQEQEQERERDPQQEQERERPVDREPVDREPVVCHPDLEERLQAWPAELPDEFFELTVDDVRRRLAQLKSERKRLEEAPLVTKAFREAQIKEKLERYPKVALRVLFPDRYVLQGFFRPSETVGDLRDFVRSHLGNPELSFYLFITPPKTVLDDHTQTLFQANLFPAALVHLGAEEPAGVYLEPGLLEHAISPSAADVLVARYMSRAAGSPSPLPAPDPAPKSEPAAEEGALVPPEPIPGTAQPVKRSLGKVPKWLKLPASKR
48	57.6	3090	no binding	Flag-UBXD8 (other, UniProt Q96CS3 1-445, looked up, also called RDB 2143; not shown: N-terminal Flag tag) MAAPEERDLTQEQTEKLLQFQDLTGIESMDQCRHTLEQHNWNIEAAVQDRLNEQEGVPSVFNPPPSRPLQVNTADHRIYSYVVSRPQPRGLLGWGYYLIMLPFRFTYYTILDIFRFALRFIRPDPRSRVTDPVGDIVSFMHSFEEKYGRAHPVFYQGTYSQALNDAKRELRFLLVYLHGDDHQDSDEFCRNTLCAPEVISLINTRMLFWACSTNKPEGYRVSQALRENTYPFLAMIMLKDRRMTVVGRLEGLIQPDDLINQLTFIMDANQTYLVSERLEREERNQTQVLRQQQDEAYLASLRADQEKERKKREERERKRRKEEEVQQQKLAEERRRQNLQEEKERKLECLPPEPSPDDPESVKIIFKLPNDSRVERRFHFSQSLTVIHDFLFSLKESPEKFQIEANFPRRVLPCIPSEEWPNPPTLQEAGLSHTEVLFVQDLTDE
27	41.1	958		Flag-UBXD2 (other, UniProt Q92575 1-508, looked up, also called RDB 2153; not shown: N-terminal Flag tag) MLWFQGAIPAAIATAKRSGAVFVVFVAGDDEQSTQMAASWEDDKVTEASSNSFVAIKIDTKSEACLQFSQIYPVVCVPSSFFIGDSGIPLEVIAGSVSADELVTRIHKVRQMHLLKSETSVANGSQSESSVSTPSASFEPNNTCENSQSRNAELCEIPPTSDTKSDTATGGESAGHATSSQEPSGCSDQRPAEDLNIRVERLTKKLEERREEKRKEEEQREIKKEIERRKTGKEMLDYKRKQEEELTKRMLEERNREKAEDRAARERIKQQIALDRAERAARFAKTKEEVEAAKAAALLAKQAEMEVKRESYARERSTVARIQFRLPDGSSFTNQFPSDAPLEEARQFAAQTVGNTYGNFSLATMFPRREFTKEDYKKKLLDLELAPSASVVLLPAGRPTASIVHSSSGDIWTLLGTVLYPFLAIWRLISNFLFSNPPPTQTSVRVTSSEPPNPASSSKSEKREPVRKRVLEKRGDDFKKEGKIYRLRTQDDGEDENNTWNGNSTQQM
